Test results as given in patent US20110262929A1 (FORERUNNER PHARMA RESEARCH, published 2011).
Substitutions are numbered along the chain they refer to.

How the values were obtained:
[1] = target: T1, C-terminal V5 tagged HS6ST2_N-long (HS6ST2_N-long_ctV5), expressed in CHO DG44 cells (human, UniProt Q96MM7 1-605); assay: flow cytometry on HS6ST2_N-long_ctV5_CHO cells
T1 construct: On cells in flow cytometry; also called Q96MM7-1
T1 sequence: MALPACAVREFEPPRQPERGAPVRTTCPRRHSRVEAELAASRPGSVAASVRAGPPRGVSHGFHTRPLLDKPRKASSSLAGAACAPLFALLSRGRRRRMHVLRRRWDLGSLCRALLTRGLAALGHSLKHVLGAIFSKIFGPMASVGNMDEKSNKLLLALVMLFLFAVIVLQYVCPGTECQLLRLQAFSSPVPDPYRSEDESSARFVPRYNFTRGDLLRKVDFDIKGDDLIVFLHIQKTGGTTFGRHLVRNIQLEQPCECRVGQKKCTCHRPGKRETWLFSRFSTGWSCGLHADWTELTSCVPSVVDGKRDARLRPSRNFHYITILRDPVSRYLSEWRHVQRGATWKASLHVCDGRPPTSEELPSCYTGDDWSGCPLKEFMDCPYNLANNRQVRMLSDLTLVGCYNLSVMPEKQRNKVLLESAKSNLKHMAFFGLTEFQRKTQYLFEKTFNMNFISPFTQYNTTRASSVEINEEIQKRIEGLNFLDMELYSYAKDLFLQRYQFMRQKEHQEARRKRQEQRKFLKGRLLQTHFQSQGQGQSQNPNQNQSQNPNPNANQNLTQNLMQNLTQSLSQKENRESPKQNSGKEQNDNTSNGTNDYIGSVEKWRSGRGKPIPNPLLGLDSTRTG
Description: (§1) Each anti-HS6ST2 antibody or mouse IgG1 (mIgG1, BD Biosciences Pharmingen) as a negative control was added to a final concentration of 2 μg/mL into 96-well U-bottom plates (Becton Dickinson) containing 5×10⁴ cells suspended in PBS (FACS buffer) supplemented with 0.5% bovine serum albumin and 0.1% NaN₃. After reaction on ice for 1 hour, the cells were washed with FACS buffer. Then, an FITC-labeled anti-mouse antibody (Goat F(ab′)₂ Fragment Anti-mouse IgG (H+L)-FITC, Beckman Coulter) was added as a secondary antibody, and the mixture was reacted on ice for 1 hour. The cells were washed with FACS buffer, and then suspended in FACS buffer containing 10 μg/mL propidium iodide (PI) (Sigma) and assayed by a flow cytometer (FACS Calibur, Becton Dickinson). The assay data were analyzed by CELLQuest software (Becton Dickinson), and the geo-mean of FITC fluorescent intensity was calculated for the PI-negative population of viable cells.
Binding activity of the anti-HS6ST2 antibodies prepared in Example 2 to HS6ST2_N-long was evaluated by flow cytometry. The cells used were HS6ST2_N-long_ctV5_CHO cells and HS6ST2_N-short_{—} ctV5_CHO cells as a positive control, and evaluated in the same manner as in Example 3. The primary antibodies were used at a concentration of 10 μg/mL.

[2] = target: T2, C-terminal V5 tagged mouse HS6ST2 (mHS6ST2_ctV5), expressed in CHO DG44 cells (mouse, UniProt Q80UW0 148-612); assay: flow cytometry, antibody diluted 5-fold from 10 µg/mL in 6 steps
T2 construct: also called mHS6ST2_ctV5_CHO; mouse HS6ST2 transcript variant 2
T2 sequence: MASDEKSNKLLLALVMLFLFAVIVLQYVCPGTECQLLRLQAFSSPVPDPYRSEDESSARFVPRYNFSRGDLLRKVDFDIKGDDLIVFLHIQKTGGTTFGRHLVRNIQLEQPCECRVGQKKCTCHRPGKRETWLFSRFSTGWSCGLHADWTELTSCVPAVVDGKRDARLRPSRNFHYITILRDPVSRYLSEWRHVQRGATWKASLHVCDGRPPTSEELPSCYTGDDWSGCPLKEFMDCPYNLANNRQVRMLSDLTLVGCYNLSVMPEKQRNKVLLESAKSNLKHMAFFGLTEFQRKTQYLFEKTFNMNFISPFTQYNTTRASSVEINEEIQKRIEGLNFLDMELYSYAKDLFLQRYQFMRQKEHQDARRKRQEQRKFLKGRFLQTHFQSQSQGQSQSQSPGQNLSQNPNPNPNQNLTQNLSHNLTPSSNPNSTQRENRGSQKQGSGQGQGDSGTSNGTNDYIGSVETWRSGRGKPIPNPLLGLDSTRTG
Description: (§2) Binding of the anti-HS6ST2 antibodies prepared in Example 2 to mHS6ST2 was evaluated by flow cytometry. The cells used were mHS6ST2_ctV5_CHO, HS6ST2_N-short_ctV5_CHO as a positive control, and the CHO DG44 cell line as a negative control.
as §1, with “Each anti-HS6ST2 antibody or mouse IgG1 (mIgG1, BD Biosciences Pharmingen) as a negative control was added to a final concentration of 2 μg/mL into 96-well U-bottom plates (Becton Dickinson) containing 5×10⁴ cells suspended in PBS (FACS buffer) supplemented with 0.5% bovine serum albumin and 0.1% NaN₃.” left out
It was also shown that A6 and C8 equally bind to HS6ST2 and mHS6ST2.

[3] = target: T3, C-terminal V5 tagged HS6ST2_N-short (HS6ST2_N-short_ctV5), expressed in CHO DG44 cells (human, UniProt Q96MM7 147-605); assay: flow cytometry on HS6ST2_N-short_ctV5_CHO cells, antibody 2 µg/mL
T3 construct: also called Q96MM7-2
T3 sequence: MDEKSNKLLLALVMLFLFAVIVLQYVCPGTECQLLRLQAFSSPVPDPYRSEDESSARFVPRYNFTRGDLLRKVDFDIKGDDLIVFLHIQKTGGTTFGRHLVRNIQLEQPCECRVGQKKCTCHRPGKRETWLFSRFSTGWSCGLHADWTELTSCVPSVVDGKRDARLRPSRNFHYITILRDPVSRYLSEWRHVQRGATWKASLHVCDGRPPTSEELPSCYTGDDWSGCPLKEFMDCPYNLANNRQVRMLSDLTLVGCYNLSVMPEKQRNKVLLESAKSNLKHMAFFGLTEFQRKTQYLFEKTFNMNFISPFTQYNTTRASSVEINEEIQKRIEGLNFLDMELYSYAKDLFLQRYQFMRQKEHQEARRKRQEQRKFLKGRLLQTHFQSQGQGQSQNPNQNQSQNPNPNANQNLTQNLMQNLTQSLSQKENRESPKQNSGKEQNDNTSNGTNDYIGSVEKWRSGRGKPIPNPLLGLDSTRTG
Description: as §2, §1

Measured: binding result

B1: anti-HS6ST2 antibody A6 (antibody, mouse IgG1, V domains shown)
VH: EVQLQQSGAELVRSGASVKLSCTASGFNIKDYYMHWVKQRPEQGLEWIGWIDPENDDTEYAPKFQGRATMTADTSSNTAYLQLSSLTSEDTAVYYCNAGYYGSGFAYWGQGTLVTVSA
VL: DIVMTQSPSSLTVTAGEKVTMRCKSSQSLLNSGNQKNYLTWYQQKPGQPPRLLIYWASIRESGVPDRFTGSGSGTDFTLTISSVQAEDLAVYYCQNDYSYPLTFGTGTKLELK
notes: also called clone A6
binds: all assays above

B2: anti-HS6ST2 antibody C8 (antibody, mouse IgG1, V domains shown)
VH: B1 VH with E54D, R67K, Y100N, Y101G, G102N, S103Y, G104W
VL: DVVMTQTPLSLPVSLGDQASISCRSSQSLVHSNGNTYLHWNLQKPGQSPKLLIYKVSNRFSGVPDRFSGSGSGTDFTLKISRVEAEDLGVYFCSQTTLVPYTFGGGTKLEIK
notes: also called clone C8; C8-biotin
binds: all assays above
